# Assay results: the DeepSol protein solubility set
# Assay: soluble on expression in E. coli; label from the status in PepcDB or PDB records
row,Sequence,soluble on expression in E. coli
1,MQVEQRTLNTAAHPFQITAYWLDQISDFETAVDYPIMIICPGGGFTYHSGREEAPIATRMMAAGMHTVVLNYQLIVGDQSVYPWALQQLGATIDWITTQASAHHVDCQRIILAGFSAGGHVVATYNGVATQPELRTRYHLDHYQGQHAAIILGYPVIDLTAGFPTTSAARNQITTDARLWAAQRLVTPASKPAFVWQTATDESVPPINSLKYVQAMLQHQVATAYHLFGSGIHGLALANHVTQKPGKDKYLNDQAAIWPQLALRWLQEQGLLAGNYLEHHHHHH,soluble
2,MYVNKQEIIKNIQKLSPKSPAEYIEKDGCFMLTCPENTYPSFFSQFQYSEIPPPGNLIPQNALEISPPTSLEEMGGASLSEYFGIICDDGVWKLTKYPNGITFNKDPPSYTNGSLNGYKTEIFTMNCY,not soluble
3,MKRSTTDSDLAGDAHNETNKKMKSTEEEEIGFSNLDENLVYEVLKHVDAKTLAMSSCVSKIWHKTAQDERLWELICTRHWTNIGCGQNQLRSVVLALGGFRRLHSLYLWPLSKPNPRARFGKDELKLTLSLLSIRYYEKMSFTKRPLPESK,soluble
4,MGHHHHHHSHVLLVTANVGSLFDDPENLQKNWLREFYQVVHTHKPHFMALHCQEFGGKNYEASMSHVDKFVKELLSSDAMKEYNRARVYLDENYKSQEHFTALGSFYFLHESLKNIYQFDFKAKKYRKVAGKEIYSDTLESTPMLEKEKFPQDYFPECKWSRKGFIRTRWCIADCAFDLVNIHLFHDASNLVAWETSPSVYSGIRHKALGYVLDRIIDQRFEKVSYFVFGDFNFRLDSKSVVETLCTKATMQTVRAADTNEVVKLIFRESDNDRKVMLQLEKKLFDYFNQEVFRDNNGTALLEFDKELSVFKDRLYELDISFPPSYPYSEDARQGEQYMNTRCPAWCDRILMSPSAKELVLRSESEEKVVTYDHIGPNVCMGDHKPVFLAFRIMPG,not soluble
5,MGSDKIHHHHHHMLISLEDTNYTLVKEYLEKSVNHHILQRYIDNHNFPIIEKSYHKYLTFESLEEDFTYILKDGIVKQSVLSKYGMEFNLRYVTGLEITSVLNTGYSKDMGEPYNVRIESEKASFYKVRRSAFLKDINEDIELQGYVKDFYHNRLQKSMKKMQCMLTNGRIGAISTQIYDLMTLFGEELPNGQILINFVITNEELGKFCGISTASSVSRILKQLKEKNIIRIDKQHIIITNLDKLKDNIVF,not soluble
6,MAHHHHHHMGGVTLHKVNTCPWWQRKNYEIEKSFFLRSAPPPLRKKRNQLRQYNHAENNSYTNIYTIKNPLKCKVVDKVSLVRQNALHEVYNVEIDHGGMFKYLEGHSCGVIPYYEDLIQADDKNNSQEGRKKRGNKFARLYSISSTNAENLSFAIRIHSYQEEENGCMQHKYGYCSGYIKELKKNDNIYITGAHGCFLLPDNVSEKNTNLILIATGTGISPYISFLKKIWGYQPGIHQQKKTYNGQVYLYYGVYYEDSILYLPELKYFQNMYPNNFHVEYVFSSIKNSDGTSHHVQDEIYKKRENFLRLFNELNCELYICGHKSIRAKIMDILKGENPVLDSEKKKRVHVEVY,not soluble
7,PNVVKMNKPFISLCPEITRAHALTLMDWLEDEHVTRHLSDSRHVSRFIEQVIDRVQLPVLTHLFNQGGRFFMAYDRHDVPVGFVRLVKTGSDCEIVLVIGNRDNWGRKLGASAIREGMKLAFFEMRAARLIAKVHPDNERSLNAFLRCGFVLESETP,not soluble
8,MGHHHHHHSHMGDSRRDVLHEPAIALLSSPQTQSRLQIDAFIARRCWGSQWDITGYIHQQDFPTAVFIGFSNEFNICIPHPFTEWLQCVRKYSQSWGVRKGQRHIRYGMCSERTHHLSRTYSSLLEREEKLAFYGVLTMCQIWSET,not soluble
9,MGHHHHHHSHMRQRLLPSVTSLLLVALLFPGSSQARHVNHSATEALGELRERAPGQGTNGFQLLRHAVKRDLLPPRTPPYQGDVPPGIRNTICRMQQGICRLFFCHSGEKKRDICSDPWNRCCVSNTDEEGKEKPEMDGRSGI,not soluble
10,MDLFPDEVYVFTPKGHIMELPKGATPVDFAYTVHSGVGNSCVAAKVNRRLVPLSIPLSNGQTVEIITAPGAHPNPAWLEHHHHHH,not soluble
11,MGSDKIHHHHHHMKTVIIVQARMTSTRLPGKVLKKVLDKPLLEYQIERLKRVKLADEIVIATTINSTDLPIIELCDRLSIPYFLGSEEDVLTRYYGAAKEHQADVVVRITSDCPLIDPLVINKVIQFFLDYRHECDYVSNSLERTYPRGMDTEVFSFLALHQAFVEAIAQPDREHVTPFIYMHPERYRLAQVVYSENQSSHRWTVDTADDFELIKRIIETLYPEIPKFTLEDCLDLFREYPDWSLINAHVEQKKYAA,not soluble
12,SDLSALRVEEVQNVINAMQKILECPICLELIKEPVSTKCDHIFCKFCMLKLLNQKKGPSQCPLCKNDITKRSLQESTRFSQLVEELLKIICAFQLDTGLEYANSYNFAKK,soluble
13,MGSDKIHHHHHHVAPPTKGGLAEAENKMENKMTEQQGYWIGEAGKPWGEAEKAKWRAAQQKKRSYEQEVLSKFSQVSESFEAQQYGELNYAEGQYPLYGFKSRDWDQEKPTILVTGGVHGYETSGVQGALRFLIAKAAEYSQDFNILVAPCVSPWGYETINRWNPEAIDPNRSFYADSPAQESRALMQWVASFNLPLMAHIDLHETTDTDNSEFRPALAARDAKVQTNWNIPDGFYLVGDSENPNDEMQAAIIAAVGKVTHIAPADEQGRLIGEPITQFGVINYATKALGLCSGFSDARYNTTTEVYPDSPLVDDENCIQAQVMAVSSALDYIRSQG,not soluble
14,MSLKYDVVVIGAGGAGYHGAFRLAKAKYNVLMADPKGELGGNCLYSGCVPSKTVREVIQTAWRLTNIANVKIPLDFSTVQDRKDYVQELRFKQHKRNMSQYETLTFYKGYVKIKDPTHVIVKTDEGKEIEAETRYMIIASGAETAKLRLPGVEYCLTSDDIFGYKTSFRKLPQDMVIIGAGYIGLEIASIFRLMGVQTHIIEMLDRALITLEDQDIVNTLLSILKLNIKFNSPVTEVKKIKDDEYEVIYSTKDGSKKSIFTNSVVLAAGRRPVIPEGAREIGLSISKTGIVVDETMKTNIPNVFATGDANGLAPYYHAAVRMSIAAANNIMANGMPVDYVDVKSIPVTIYTIPSLSYVGILPSKARKMGIEIVEAEYNMEEDVSAQIYGQKEGVLKLIFERGSMRLIGAWMIGVHSQYLINELGLAVAYGLNAKQLASFAEQHPSTNEIISYTARKVIEGHHHHHH,soluble
15,MGHHHHHHSHMANSAGSMANSAGSMKEGKHFVLVHGACHGGWSWYKLKPLLEAAGHKVTALDLAASGTDLRKIEELRTLYDYTLPLMELMESLSADEKVILVGHSLGGMNLGLAMEKYPQKIYAAVFLAAFMPDSVHNSSFVLEQYNERTPAENWLDTQFLPYGSPEEPLTSMFFGPKFLAHKLYQLCSPEDLALASSLVRPSSLFMEDLSKAKYFTDERFGSVKRVYIVCTEDKGIPEEFQRWQIDNIGVTEAIEIKGADHMAMLCEPQKLCASLLEIAHKYN,soluble
16,MIDILLCDVIITIGDVEIKAHKTILAAGSTYFKTMFTTPMIARDLATRVNLQMFDKMSSKILYSTYTIGI,not soluble
17,MSLEKKDTNSLKLLLIGNTGIGEYKSRAERKGLWYKLKRFLWTNEFDQTVSALAKWHAEEKADAVLGLGDFLGIPGPLSARDERFTKRWYDIFVKDAKLDIPWLMTLGEEEALVNPSASVRHHYTGEHPNWYMPNDAYTATFSFSTSMTMANGTIQHEAFNATVINVNTWNLFVGNPIANNMQSMMDRLMWLSDQLYTAVNQTTNWLIIMGHLPLVSTGPQGEQGRLQYVDDLYKNGQPRGPEAVLIQMLLSHYQVDLYVSAHDHFMEYVALEDLSKNTTTAFITSGAAVRLLDKDVGRGWIGRLRGALYPILCWSGRRILYAFHPGEGHHHHHH,not soluble
18,MGSDKIHHHHHHMARLPLKQFLADNPKKVLVLDGGQGTELENRGIKVANPVWSTIPFISESFWSDESSANRKIVKEMFNDFLNAGAEILMTTTYQTSYKSVSENTPIRTLSEYNNLLNRIVDFSRNCIGEDKYLIGCIGPWGAHICREFTGDYGAEPENIDFYQYFKPQLENFNKNDKLDLIGFETIPNIHELKAILSWDESILSRPFYIGLSVHEHGVLRDGTTMEEIAQVIKDLGDKINPNFSFLGINCVSFNQSPDILESLHQALPNMALLAYPNSGEVYDTEKKIWLPNSDKLNSWDTVVKQYISSGARIIGGCCRTSPKDIQEISAAVKKYT,not soluble
19,MLARLLLSFSVVLTAFGVGAAEVDKTQPYQMMKQVAEVTFARLKAEQPKIKQDPNLLKVIVEQELMPYVNDRYAALKLLGPNLKGAKREDVLEFVDAFRAYLIASYAQVLTQYSDQQIEFGPEPKLDDSKRITSIKVEIIDAPRPNIKLEFKLRKDNKTDEWEAFDMVAEGISLLSSKQSEWNTKIRQDGILAVAQDLEKLAAEPIRFEAKK,soluble
20,MKSRREQSIEEAIVANYLKMMIDNVNVWPRHFLRSEDVYCKNPWTLFVTRDPIILHFGRYFFVNRSVNSGLTDGCEYGCWRIIGRDRVIKSVTTGKILGLKKVYKFCETDRKPKSVFKFLEKEKRRVRDRRIWAMEEYRFASTWKQDYVICKIRRLYPQPFDYMLAQHIRGYYK,soluble
21,MGSDKIHHHHHHMLNQVYRLVSPRQFEVETVAEEVDADDLIVRPKFLSICHADTRYFFGQRSQAALRAKLPMALIHEAVGEVVYDPRNEYKPGTLVAMVPNTPVKKDSIIQENYLPSSRFRSSGYDGFMQEYVCLRRDRAITVPSDFDPHMAAFIEMVSVGVQALTKLESTMDEDQRVIGIWGDGNLGYITATLVKQIFPDSQLLVFGRHQSKLDYFSFADKTYLVDDIPADVKVSQALECTGGQGSEAAIQQIIQHIQPMGTAILMGVSENPVGIDTRSVLAEGLTLRGVSRSSREDFKRAVDILSSSPVTRERLQNLVGYVQKVSSIQDITNFFDSALTNYWGKEVMEWDV,not soluble
22,MKLFERIHQDTEIRQIYDAIGQMEDEEAGWAYHNWFHVTNVVAMTEMILKQLAVSEEYLEAAKIAALLHDVGALQGKAGHALRGKQFAEAYFRKQKICLPYQEEILSSIENHSNGFDSEELMTLALIISDKLDITTSRVAKAGYFVPGMRQFQFLKKIEIMLSEQEVCVSFTAEEELDLEELNAFYFMPKVFKAIAAFSGKIQRRPIVLLNNQEWPVPKQKNPSTVH,not soluble
23,MSGCDAWEGDCCSRRCGAQDKEHPRYLIPELCKQFYHLGWVTGTGGGISLKHGDEIYIAPSGVQKERIQPEDMFVYDINEKDISGPSPSKKLKKSQCTPLFMNAYTMRGAGAVIHTHSKAAVMATLLFPGREFKITHQEMIKGIKKCTSGGYYRYDDMLVVPIIENTPEEKDLKDRMAHAMNEYPDSCAVLVRRHGVYVWGETWEKAKTMCECYDYLFDIAVSMKKVGLDPSQLPVGENGIV,soluble
24,MKPNLLPMNLQMFAEEDGGTNFTFDDFKAFVESNEEAQKFVQSQSQSAADKQLEAWKQNNLEKIKETTIKEYEESKKNKTPEQIKLEELQAEFEAEKALRVTSDNKAFVAEKIAGLDWDGDLKDSISQFMLNNLVSSDTEFTKKAVEGFTELLEAINDKHAEAIKNVEMTKAFGNKSQQTNMGTGNQTKSFENPEVALGQKLQAFID,not soluble
